The chains are these.
B1: TPR 5TU (parent)
chain: GGAUCUUCUCGAUCUAACAAAAAAGACAAAUCUGCCACAAAGCUUGAGAGCAUCUUCGGAUGCAGAGGCGGCAGCCUUCGGUGGCGCGAUAGCGCCAACGUUCUCAACUAUGACACGCAAAACGCGUGCUCCGUUGAAUGGAGUUUAUCAUG

This sample holds only a part of the variants without activity.

The values that follow come from the RNAGym collection of RNA variant scans (doi:10.1073/pnas.2313332121).

This series covers variants of B1. Briefly: polymerase ribozyme fitness, log enrichment relative to wild type (log ratio); higher = more active; in vitro selection for triplet polymerase activity. Summed up:
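PCR was used to build mutant libraries for each subunit of a heterodimeric triplet polymerase ribozyme, which were then transcribed. A single in vitro selection round, in triplicate, used a frozen incubation at −7 °C and recovered extended constructs by gel excision, streptavidin beads and RT-PCR. Fitness is the logarithm of genotype enrichment relative to wild-type enrichment, averaged over replicates with inverse-variance weights. The logarithm is base 2, and after Illumina sequencing only genotypes with ≥10 input reads and ≥1 read per output were kept.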
For GGAUCUUCUCGAUCUAACAUAAAAGACAAAUCUGCCACAAAGCUUGAGGGCAUCUUCGGAUGCAGAGGCGGCAGCCUUCGGUGGCGCGAUAGCGCCAACGUUCUCAACUAUGACACGCAAAACGCGUGCUCCGUUGAAUGGAGUUUAUCAUG [A20U A49G], the “polymerase ribozyme fitness (log ratio)” value was -1.2.

With GGAUCUUCUCGAUCUAACAUAAAAGACAAAUCUGCCACAAAGCUUGAGAGCAUCUUCGGAUGCAGAGGCGGCAGCCUUCGGUGGCGCGAUAGGGCCAACGUUCUCAACUAUGACACGCAAUACGCGUGCUCCGUUGAAUGGUGUUUAUCAUG [A20U C93G A121U A142U], the “polymerase ribozyme fitness (log ratio)” value is at most -4.2.

Consider GGAUCUUCUCGAUCUAACAUAAAAGACAAAUCUGCCACAAAGCUUGAGAGCAUCUUGGGAUGCAGAGGCGGCAGCCUUCGGUGGCGCUUUAGCGCCAACGUUCUCAACUAUGACACGCAAAACGCGUGCUCCGUUGAAUGGAGUUUAUCAUG [A20U C57G G88U A89U], for which the “polymerase ribozyme fitness (log ratio)” value was at most -4.2.

As for GGAUCUUCUCGAUCUAACAUAAAACACAAAUCUGCCACAAAGCUUGAGACCAUCUUCGGAUGCAGAGGCGGCAGCCUUCGGUGGCGCGAUAGCGCCAACGUUCUCAACUAUGACACGUAAAACGCGUGCUCCGUUGAAUGGAGUUUAUCAUG [A20U G25C G50C C118U], the “polymerase ribozyme fitness (log ratio)” value was at most -4.2.

As to GGAUCUUCUCGAUCUAACAUAAAAGACAAAUCUGCCACAAAGCUUGAGAGCAUCUUCGGAUGCAGAAGCGGCAGCCUUCGGUGGCGCGAUAGCGCCAACGUUCUCAACUAUGACACGCAAAACGCGUGCUCCGUUGAAUGGAGUUUAUCAUG [A20U G67A], the “polymerase ribozyme fitness (log ratio)” value was -3.89.

For the variant GGAUCUUCUCGAUCUAACAUAAAAGACAAAUCUGCCACAAAGCUUGAGAGCAUCUUCGGAUGCAGAGGCGGCGGCCUUCGGUGGCGCGAUAGCGCCAACGUUCGCAACUAUGACGCGCAAAACGCGUGCUCCGUUGAAUGGAGUUUAUCAUG [A20U A73G U104G A115G], the “polymerase ribozyme fitness (log ratio)” value was at most -4.2.

Regarding GGAUCUUCUCGAUCUAACAUAAAAGACAAAUCUGCCACAAAGCUUGAGAGCGACAUCGGAUGCAGAGGAGGCAGCCUUCGGUGGCGCGAUAGCGCCAACGUUCUCAACUGUGACACGCAAAACGCGUGCUCCGUUGAAUGGAGUUGAUCAUG [A20U A52G U53A U55A C69A A110G U146G], the “polymerase ribozyme fitness (log ratio)” value is at most -4.2.

For the variant GGAUCUUCUCGAUCUAACAUAAAAGAUAAAUCUGCCACAAAGCUUCAGAGCAUCUUCGGAUGCAGAGGCGGCAGCCUUCGGUGGCGCGAUAGCGUCAACGUUCUCAACUAUGACACGCAAAACGCGUGCUCCGUUGAAUGGAGUUUAUCAUG [A20U C27U G46C C95U], the “polymerase ribozyme fitness (log ratio)” value is -3.76.

Consider GGAUCUUCUCGAUCUAACAUAAAAGACAAAUUUGCCACAAAGCUUGAGAGCAUCUUCGGAUGCAGAGGCGGCAGCCGUCGGUGGCGCGAUAGCGCCAACGUUCUCAACUAUGACACGCAAAACGCGUGCUCCGUUGAAUGGUGUUUAUCAUG [A20U C32U U77G A142U], for which the “polymerase ribozyme fitness (log ratio)” value was at most -4.2.

GGAUCUUCUCGAUCUAACAUAAAAGACAAAUCUGCCAUAAAGCUUGAGAGCAUCUUCGGAUGCAGAGGCGGCAGCCUUCGGUGGAUCGAUAGCGCCAACGUUCUCAACUAUGACACGCAAAACGCGUGCUCCGUUGAAUGGAGUUUAUCAUG [A20U C38U C85A G86U]: the “polymerase ribozyme fitness (log ratio)” value was at most -4.2.

With GGAUCUUCUCGAUCUAACAUAAAAGACAAAUCUGCCACAAAGCUUGAGAGCAUCUUCGGAUGCAGAGGCGGCAGCCUUCGGUGACGCGAUAGCGCCAACGUUCUCAACUAUGACACGCAAAACACGUGCUCCGUUGAAUGGAGUUUGUCAUG [A20U G84A G124A A147G], the “polymerase ribozyme fitness (log ratio)” value was -2.53.

With GGAUCUUCUCGAUCUAACAUAAAAGACAAAUCUGCCACAAAGUUUGAGAGCAUCUUCGGAUGCAGAGGCGGCAGCCUUCGGUGGCGCGAUAGCGCUAACGUUCUCAACUAUGAUACGCAAAACGCGUGCUCCGUUGAAUGCAGUUUAUCAUG [A20U C43U C96U C114U G141C], the “polymerase ribozyme fitness (log ratio)” value was at most -4.2.

Turning to GGAUCUUCUCGAUCUAACAUAAAAGACAAAUCUGCCACAAAGCUUGAGAGCAUUUUCGGAUGCAGAGGCGGCAGCCUUCGGUGGCGCGAUAGCGUAAACGUUCUCAACUAUGACACGCAAAACGCGUGCUCCGUUGAAUGGAGUUUAUCAUG [A20U C54U C95U C96A], the “polymerase ribozyme fitness (log ratio)” value is -2.31.

Turning to GGAUCUUCUCGAUCUAACAUAAAAGACAAAUCUGCCACAAAGCUUGAGAGCAUCUUCGGAUGCAGAGGAGGCAGCCUUCGGUGGCGCGAUAGCGCCAACGUUCUCAACUAUGACACGCAAAACGCGUGCUCCGUUGAAUGGAGUUUAUCAUG [A20U C69A], the “polymerase ribozyme fitness (log ratio)” value was -2.18.

On to GGAUCUUCUCGAUCUAACAUAAAAGACAAAUCUGCCACAAAGCUUGAGAGCAUCUUCGGAUGCAGAGGCGGCAGCCUUCGGUGUCGCGAUAGCGCCAACGUUCUCAACUAUGACACGCAUAACGCGUGCUCCGUUGAAUGGAGUUUAUCAUG [A20U G84U A120U], for which the “polymerase ribozyme fitness (log ratio)” value was -2.73.

Take GGAUCUUCUCGAUCUAACAUAAAAGACAAAUCUGCCACAAAGCUUUAGAGCAUCUUCGGAUGCAGAGGCGGCAGCCUUCGGUGGCGCGAUAGCGCCAGUGUUCUCAACUAUGACACGCAAAACGCGUGCUCCGUUGAAUGGAGUUUAUCAUG [A20U G46U A98G C99U]: the “polymerase ribozyme fitness (log ratio)” value was -3.31.

For the variant GGAUCUUCUCGAUCUAACAUAAAAGACAAAUCUGCCACAAAGCUUGAGAGUAUCUUCGGAUGCAGAGGCGGCAGCCUUAGGUGGCGCGAUAGAGCCUACGUUCUCAACUAUGACACGCAAAACGCGUGCUCCGUUGAAUGGAGUUUAGCAUG [A20U C51U C79A C93A A97U U148G], the “polymerase ribozyme fitness (log ratio)” value was at most -4.2.

In the case of GGAUCUUCUCGAUCUAACAUAAAAGACAAAUCUGCCACAAAGCUUGAGAGCAUCUUCGGAUGCAGAGGCGGCAGCCUUCGGUGGCGUCAUAGCGCCAACGAUCUCAACUAUGACACGCAAAACGCGUGCUCCGUUGAAUGGAGUUGAUCAUG [A20U C87U G88C U101A U146G], the “polymerase ribozyme fitness (log ratio)” value is at most -4.2.

Consider GGAUCUUCUCGAUCUAACAUAAAAGACAAAUCUGCCACAAAGCUUGAGAGCAUCUUCGGAUGCAGAGGCGGCAGCCUUUGGUGGCGCGAUAGCGCCAACGUUCUCAACUAUGACACGCAAAACGCGUGCUCCGUUGAAUGGAGUUUAUCAUG [A20U C79U], for which the “polymerase ribozyme fitness (log ratio)” value was -3.19.
